Data on 4 molecules can be found in PMC10126205, “A comparative analysis of lipoprotein transport proteins: LolA and LolB from Vibrio cholerae and LolA from Porphyromonas gingivalis” (Scientific Reports, 2023).

“And” between values parts separate entries of the source, which are not always exact repeats. Identical values can stand only once.

One assay has as its target LolB (Escherichia coli) (UniProt P61320). The conditions noted are these: cited from earlier work.
The target in another assay is T1, LolA (LolA-PG) (Porphyromonas gingivalis, UniProt B2RI10).
T1 construct: gene PGN_0486; LolA residues 27–215
In words: isothermal titration calorimetry (single-site model, […] °C). It is filed as binding.

The target in assay [1] is LolB from Vibrio cholerae (Vibrio cholerae). In words: ITC; LolA injected on LolB-VC (750 µM and 100 µM); MicroCal auto-iTC200, 25 °C, 20 mM HEPES pH 7.5, 150 mM NaCl; heats of LolA on buffer subtracted; single site binding model; no lipoprotein present. On the technique in general: ITC needs no label: the signal is the heat of the interaction.
In assay [2] the target is LolB from Vibrio cholerae (Vibrio cholerae (strain A1552)). In words: ITC; MicroCal auto-iTC200, 25 °C, 20 mM HEPES pH 7.5, 150 mM NaCl; LolA injected onto LolB, 20 injections, stirring 300 rpm; single site binding model; no lipoprotein present.

LolA (from UniProt P61316): the Kd with LolB (Escherichia coli) was 30.6 µM.
`N=C(N)SCc1ccc(Cl)c(Cl)c1` [A22] came in with a Kd on LolA (LolA-PG) of 681 ± 44.1 µM.
With “LolA from Vibrio cholerae (from UniProt A5F2G9 17-198) (natural protein)”, in assay [1], the Kd was 27.5 µM and 32.9 µM; the stoichiometry N is 0.72 and 0.83 and 0.78.

B1: LolA from Vibrio cholerae (natural protein)
chain: APKDTLSERLAMSEGFSATFNQQVLSPEGKVILTGNGKVDIARPSLFRWETETPDENLLVSDGTTLWHFDPFVEQVTLYRAEEALEQTPFVLLTRNKASDWDAYHVEEKGDVFTLTPTALDSNQGRFQITISEKGVVQGFKVIEQDGQQSEFTFSKVKQQKPNASVFNYKVPKGVEVDDQRN
The molecule B1 came in with a Kd in assay [2] of 30.2 µM.

By Kd is commonly meant the concentration at which binding is half-saturated. As a reminder, the stoichiometry N is the number of molecules, sites or subunits per partner or assembly.
